The source of these data is paper PMC10655040.

The assay addresses CXCR4 (human (endogenous in HeLa)) (UniProt P61073). In words: flow cytometry on cells; competition on HeLa cells: 100 nM sfGFP(Y151pAzF)-SDF-1β coincubated with 1 μM commercial SDF-1β (R&D) or 1 μM CXCR4 blocking agent AMD3100; 10 000 cells per sample. For orientation: Flow cytometry measures light scatter and fluorescence of single cells or particles in a stream.
UniProt P61073, sequence (P61073 whole entry): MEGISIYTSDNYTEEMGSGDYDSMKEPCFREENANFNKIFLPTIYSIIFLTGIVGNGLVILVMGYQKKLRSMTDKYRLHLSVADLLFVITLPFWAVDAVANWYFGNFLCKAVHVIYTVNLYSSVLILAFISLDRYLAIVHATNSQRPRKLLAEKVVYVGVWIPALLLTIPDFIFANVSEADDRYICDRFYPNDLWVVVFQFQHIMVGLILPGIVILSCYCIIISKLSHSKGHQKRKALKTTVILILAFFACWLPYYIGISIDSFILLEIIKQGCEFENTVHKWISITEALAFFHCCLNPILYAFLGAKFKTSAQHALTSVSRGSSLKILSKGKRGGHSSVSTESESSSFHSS

On to sfGFP(Y151pAzF)-SDF-1β (ligand), for which the percent decrease of binding to HeLa cells with 1 μM AMD3100 (CXCR4 blocking agent) was found to be 30%.
